Source: US20160146827

Columns and labels:
[1] = system: Venus-thrombin-LUMP (LUMP fused to Venus via an 11-residue linker ASLVPRGSRGS that harbors a thrombin cleavage site)
[2] = system: mRuby-thrombin-fLov2 (fLov2 fused to mRuby via an 11-residue linker ASLVPRGSRGS that harbors a thrombin cleavage site)

For thrombin protease, the “FA value of LUMP in the intact substrate” value [1] was “FA values for the 51-kDa LUMP-Venus substrate of 0.255±0.003”, the “FA value of LUMP in the proteolyzed sensor” value [1] was “decreases to 0.166±0.001 in the proteolyzed sensor” and the “donor/acceptor ratio of fluorescence emission during proteolysis” value [1] was “donor/acceptor ratio increasing ~4.7-fold”. For the same substance, the “fluorescence emission spectra against time after addition of thrombin” value [2] was “dramatic increase in fLov2 fluorescence and attenuation of the sensitized mRuby fluorescence”.
